T1: rLiH2A (histone H2A) (Leishmania infantum, UniProt Q9BJC8 1-132)
T1 sequence: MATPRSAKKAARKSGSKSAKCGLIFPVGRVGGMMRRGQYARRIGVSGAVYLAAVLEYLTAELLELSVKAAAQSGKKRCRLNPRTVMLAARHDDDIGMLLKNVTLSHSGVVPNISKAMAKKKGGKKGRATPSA

B1: AptLiH2A#2 (structured_DNA)
DNA: GCGGATGAAGACTGGTGTGGAGTCTACCCTGTTTTCTAGTCTGCCATCCCTATCCCATGCCCTAAATACGAGCAAC
B2: AptLiH2A#1 (structured_DNA)
DNA: GCGGATGAAGACTGGTGTTGTGCAATGATTTTTCCGGTTGACCAGGTAGGAATTGTAGGCCCTAAATACGAGCAAC

Molecular target: T1, rLiH2A (histone H2A)
Assay: ELONA
Conditions: protein: recombinant; tags: His (Ni-NTA purified)

| Binder | Kd |
| --- | --- |
| B1 | 1.16 ± 0.28 nM |
| B2 | 0.96 ± 0.17 nM |

From PMC3804487, “DNA Aptamers Selectively Target Leishmania infantum H2A Protein”
